Source: the supplement of paper PMC10567573
± gives the standard deviation.

Assay: protein stability index of a GFP-peptide fusion (GPS, HEK-293T) (PSI 1-6); higher = more stable
[1] = treatment: DMSO, c terminus: a fixed tail appended
[2] = treatment: MLN4924 1 uM, 8 h, c terminus: a fixed tail appended
[3] = treatment: DMSO, c terminus: native
[4] = treatment: MLN4924 1 uM, 8 h, c terminus: native
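Further: 24-mer peptide tiles fused after GFP, lentivirally expressed, FACS-sorted into six equal bins by GFP/DsRed ratio, decoded by Illumina sequencing, PSI is the read-weighted mean bin number.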

Sequence	protein stability index [1]	protein stability index [2]	protein stability index [3]	protein stability index [4]
FDKEWVAKQTKRMLDMKVNPIQGL [COX4I1]	2.46 ± 0.44	2.78 ± 0.41	–	–
PFKFHMLHSGLVHGLAFWFDVAFI [CARM1]	2.75 ± 0.15	2.97 ± 0.2	–	–
SMQAVLDYLYTKQLSPNLDLDPLE [RHOBTB1]	2.47 ± 0.37	2.19 ± 0.47	–	–
ANFHLNDLEAPHEDDAEGEGEWD [TCF25]	–	–	5.63 ± 0.14	5.39 ± 0.22
DFSVSLKASGKNKHFKVQLVDNVY [NCK2]	2.27 ± 0.25	2.25 ± 0.19	–	–
YMYYFQYLSKTYCVDATRETNRLG [KMT5A]	2.67 ± 0.47	2.81 ± 0.66	–	–
VLTKKFQVTMRGLLSCLSKSNNRL [FBXO39]	3.16 ± 0.51	3.24 ± 1.2	–	–
TVHEVDIFRCFCPVFLHSQMLWEL [DENND6A]	2.89 ± 0.61	3.33 ± 0.49	–	–
HPANRSCRETGSFLDLFRYRVLLG [SLC22A15]	2.48 ± 0.44	2.15 ± 0.42	–	–
VLSHIMFDGPEAWGVCEPQREEVE [ZER1]	3.63 ± 0.17	3.49 ± 0.28	–	–
EEDCAWSQELPPPDPGPSPEASHL [ZNF263]	5.44 ± 0.25	5.58 ± 0.25	–	–
WPFSMDCTGTEAHISSCKLGPQVS [LOXL2]	3.02 ± 0.25	3.08 ± 0.34	–	–
FKAEVDPLSDKGTTPLQLAIIRER [ASB7]	3.82 ± 0.34	3.85 ± 0.25	–	–
EGSRSSGSNRSGSDRRKEKDPKAG [DVL3]	5.38 ± 0.15	5.5 ± 0.2	–	–
QLPGLLNFGEFKCSDSDKKCHLWT [CLCN6]	2.56 ± 0.43	2.45 ± 0.36	–	–
EQTFSPAKSLSFRKGELVTASKAI [ADD1]	3.99 ± 0.17	4.14 ± 0.28	–	–
VYTETVHVTVENVQELLPAACLLQ [KLHL12]	2.12 ± 0.52	1.91 ± 0.26	–	–
SPSPPVEVKIEEPVSMEMDNHMSD [INTS3]	5.59 ± 0.19	5.52 ± 0.17	–	–
HKVLELTAENERLQKKVEQLSREL [CEBPB]	5.76 ± 0.23	5.811 ± 0.011	–	–
DSGVGASLTRSNRHRLRWHSFQSS [DLC1]	3.03 ± 0.13	3.04 ± 0.21	–	–
ICPICLEMFTKPVVILPCQHNLCR [TRIM55]	2.42 ± 0.17	2.96 ± 0.51	–	–
MLATRNFSGGKSGGNKKSDGVKES [CAMK2A]	4.51 ± 0.7	4.54 ± 0.12	–	–
NTTLTQYQLLATHVPTVWAIDQYR [RHOBTB1]	2.75 ± 0.56	2.41 ± 0.43	–	–

Sequence	protein stability index [1]	protein stability index [2]	protein stability index [3]	protein stability index [4]
HHSLASSLRSHHTHPSYGPPGVPP [DVL3]	3.51 ± 0.29	3.58 ± 0.22	–	–
HYAGQDATDPFVAFHINKGLVKKY [FADS1]	3.21 ± 0.26	3.14 ± 0.11	–	–
FLFVLGGEDQWNPNGKHSTNFVSR [KLHL14]	2.11 ± 0.15	2.27 ± 0.41	–	–
ASLGDVQSGATISMPCSTDKENGE [SASS6]	5.69 ± 0.17	5.62 ± 0.23	–	–
SSRVPVGGGPEATLSISDVRTLSE [ZBTB22]	4.49 ± 0.11	4.57 ± 0.38	–	–
APSLEAPKPSGLEPGPAAYGLKPL [KCTD13]	4.45 ± 0.25	4.58 ± 0.1	–	–
EALAKQVASEMRFVQDLVRALEQE [DAPK3]	2.95 ± 0.25	3.09 ± 0.54	–	–
VKVLAGQEYAAKIINTKKLSARDH [CAMK2A]	3.15 ± 0.34	3.33 ± 0.11	–	–
SLQQQHQADLELIESAHRSRIKVL [FBF1]	3.53 ± 0.074	3.47 ± 0.31	–	–
GGGGCDRYEPLPPSLPAAGEQDCC [KCNA3]	5.02 ± 0.33	5.06 ± 0.29	–	–
RYAEHVAATQALPQDSGTAAWKGR [C22orf31]	4.1 ± 0.17	4.14 ± 0.35	–	–
HVRHMAYQLCHALRFLHENQLTHT [CLK3]	3.06 ± 0.3	3.01 ± 0.38	–	–
PIGCDGVLFSTHTLDKCGICQGDG [ADAMTSL2]	3.62 ± 0.26	3.79 ± 0.47	–	–
LRREKPSEEMVKMVLSRPCHPDDQ [INTS3]	4.61 ± 0.12	4.69 ± 0.15	–	–
GERPYKCSECGESFSRSSRLMSHQ [ZNF263]	3.25 ± 0.51	3.53 ± 0.83	–	–
ICDRTATPLDAFRMTSAAHYYPKL [GFOD1]	2.85 ± 0.21	2.82 ± 0.16	–	–
LLLEMLTFNPHKRISAFRALQHSY [CDK4]	2.43 ± 0.32	2.41 ± 0.25	–	–
TKEKKHQCDHCERCFYTRKDVRRH [PLAGL1]	3.69 ± 0.48	4.2 ± 0.5	–	–
KSLLPHLKTGNSSPGIGAVYLANQ [RTP4]	2.71 ± 0.16	2.77 ± 0.2	–	–
SMIQEQFKKGKNPTGLLALQQIAD [ADD1]	3.08 ± 0.18	3.17 ± 0.32	–	–
FLLAFGLMIIVCIDQWKNKIWPEI [RETREG3]	2.94 ± 0.4	3.09 ± 0.35	–	–
EQVNFCESSNDFGPYEGGGPVAGL [ZBTB22]	4.3 ± 0.16	4.32 ± 0.25	–	–
VEALQLSARWLEVLRTYLELVLCV [FBXO33]	2.58 ± 0.35	2.46 ± 0.73	–	–

Sequence	protein stability index [1]	protein stability index [2]	protein stability index [3]	protein stability index [4]
LIFFGGYGYLPEDKVLGTFEFDET [KLHDC2]	2.13 ± 0.66	2.6 ± 0.73	–	–
CGQPCSQKSGLIRHQKIHSGEKPY [ZNF649]	3.02 ± 0.5	3.21 ± 0.28	–	–
KQRPTKLKSLIRLVKHWYQNCKKK [OAS1]	3.44 ± 0.45	3.08 ± 0.42	–	–
LILASELSRLSVNSVTAGDYSRPL [TSN]	2.45 ± 0.33	2.37 ± 0.19	–	–
PHKERYFDRVDENNPEYLRERNMA [ADD1]	4.47 ± 0.36	4.69 ± 0.14	–	–
HRNLSQLPNFAFSVPLAYFLLSQQ [TCF25]	2.26 ± 0.56	2.65 ± 0.26	–	–
EFGALMSNYSLPPPLPTYHVLLEG [TRIM29]	2.7 ± 0.98	2.15 ± 0.33	–	–
YPASIVDEPTFKVLLKTADPRYEL [ZBED1]	2.89 ± 0.26	3.27 ± 0.29	–	–
GSMEQVSSHFLEQTLDKKLMSDLR [INTS4]	3.72 ± 0.2	3.73 ± 0.6	–	–
GQPLRPLVPDASKQRLMENTEDWR [PDLIM7]	4.54 ± 0.24	4.72 ± 0.18	–	–
KGGYKEFFPQHPNFCEPQDYRPMN [CDC25B]	3.52 ± 0.18	3.37 ± 0.2	–	–
QKNFGLYVQEKRDGLKRRQQLEEE [RAD54B]	4.7 ± 0.32	4.66 ± 0.2	–	–
NVLSVNLPDNFTLKEDGMETVPWF [TPH1]	2.75 ± 0.21	2.92 ± 0.17	–	–
PLRSSLPISLQATPATPATLSASS [TFE3]	4.47 ± 0.1	4.57 ± 0.14	–	–
QIEERHQEKKRKFLESTDSFNNEL [SMARCE1]	4.82 ± 0.25	5.08 ± 0.37	–	–
GQTPLAVSISISGSSRPCLDFLQE [ASB7]	2.83 ± 0.93	2.24 ± 0.37	–	–
FDVFSPKQDLVPGSPDDSHPKDGP [DLC1]	5.43 ± 0.36	5.43 ± 0.33	–	–
QPPPAPPKKIMPEAHSHYLYGHML [PPFIA4]	2.76 ± 0.26	2.91 ± 0.22	–	–
MLYEKQKQQNVAHCMLVSNRVSWW [ZBED1]	2.08 ± 0.17	2.31 ± 0.2	–	–
GLPGAEGVEPAPWAQLEAPARLLL [FANCE]	3.33 ± 0.45	3.3 ± 0.05	–	–
EMSLAEELNHGRQGENQEHLVIAE [FATE1]	5.44 ± 0.12	5.2 ± 0.24	–	–
ILLNGVSGWIFFYVPSSESFIIYL [P2RY14]	2.74 ± 0.27	2.84 ± 0.52	–	–
IVQGSSGAQGSGGGSTSAHYAVNS [CARM1]	–	3.98 ± 0.91	–	–

Sequence	protein stability index [1]	protein stability index [2]	protein stability index [3]	protein stability index [4]
PRLFKEWNITKLSIEYDSEPFGKE [CRY1]	3.06 ± 0.33	3.46 ± 0.39	–	–
YNDGVINLLEKFFEMKKGQCKDAL [SNAP91]	2.31 ± 0.3	2.34 ± 0.2	–	–
ITTNRFYGPQVNNISHTKEKKKGK [WASL]	4.17 ± 0.42	4.37 ± 0.29	–	–
QLQPTSIEKEVFPIMAKEGQLYAM [GMPPB]	3.1 ± 0.27	2.96 ± 0.5	–	–
INGSEGDGAEIAEKFVFFIGSKNG [DYNC2LI1]	2.99 ± 0.21	3.4 ± 0.26	–	–
PSPPTSPPWGLGPGAGDPAPGIGP [MYCL]	4.7 ± 0.18	4.72 ± 0.069	–	–
SSFTWSVPSSGYGAVTASKHSNSP [SMTNL2]	3.82 ± 0.26	3.87 ± 0.095	–	–
DLEAKEVTPRTALLTWTEPPVRPA [TNXB]	4.61 ± 0.14	4.53 ± 0.23	–	–
GQYATTKGISQTNLITTVTPEKKA [EPB41L3]	5.07 ± 0.2	5.11 ± 0.17	–	–
LELQRQREARKRALARKQAQEQLR [RSPH3]	3.95 ± 0.31	4.06 ± 0.49	–	–
SPALQVMGPAQEAPVAEAWIPQAG [ZNF449]	4.6 ± 0.086	4.65 ± 0.27	–	–
KIIREIDFYREDEDEEEEEGGEGE [TRIM55]	5.18 ± 0.26	5.06 ± 0.24	–	–
APPPLKDDPEGDRDGCVITKVLL [ZBED3]	–	–	5.4 ± 0.25	5.43 ± 0.4
TFFPVALKKHGPICQKTATKKRKT [ZC2HC1A]	3.24 ± 0.3	3.32 ± 0.3	–	–
TVPDEFTVEERQTGMWWRHLVAGG [SLC25A25]	2.77 ± 0.19	3 ± 0.14	–	–
VAVLLLFLVVREPPRGAVERHSDL [SPNS1]	3.02 ± 0.64	2.99 ± 0.53	–	–
LLMIPWGSAAKLVCYFTNWAQYRQ [CHIT1]	3.04 ± 0.69	2.86 ± 0.68	–	–
AALTRMRAESTANAGQSDNRSLAE [ANKRD17]	4.79 ± 0.14	4.81 ± 0.15	–	–
CSGVACLVKDNPQRSYFLRIFDIK [WASL]	2.16 ± 0.34	2.27 ± 0.7	–	–
GHKEEEDGEGAGPGEQGGGKLVLS [ESRRA]	5.3 ± 0.27	5.42 ± 0.4	–	–
